Assay results reported in article PMC2995052 (Nucleic Acids Research, 2010).

Target: the molecule itself
Assay: SEC

B1: P2 C repressor (immunity repressor of temperate Escherichia coli phage P2) (natural protein, bacteriophage P2, UniProt P04132 1-99, looked up)
chain: MSNTISEKIVLMRKSEYLSRQQLADLTGVPYGTLSYYESGRSTPPTDVMMNILQTPQFTKYTLWFMTNQIAPEFGQIAPALAHFGQNETTSPHSGQKTG
  stoichiometry N: 2
